In assay [1] the test system is cardiac fibroblasts. In words: Nuclear accumulation of PCNA. Conditions: CT-1 for 24 hours. In kind it is cell-based, rat. As for the experimental part: Cardiac fibroblasts were seeded onto cover slips and allowed to attach overnight. The cells were incubated with serum free media for 24 hours prior to stimulation with CT-1 for an additional 24 hours. The cells were then fixed with cold acetone, permeabilized and immunostained for PCNA and counter stained with Hoechst 33342. Images from 5 high power fields per slide were captured and cells were counted. Nuclei that were positive for PCNA were counted and expressed as a ratio to total nuclei.

Assay [2] deals with cardiac fibroblasts. Description: Western analysis of signaling pathways activated by CT-1 in cardiac fibroblasts. In kind it is cell-based, rat. Conditions: cardiac fibroblasts incubated with CT-1. As for the experimental part:
Fibroblasts were isolated from the hearts of 200-250 g adult male Sprague-Dawley rats as previously described (Hao et al., 2000, Am J Physiol Heart Circ Physiol 279: H3020-H3030). Briefly, hearts were subjected to Langendorff perfusion at 37° C. with Joklik's medium containing 0.1% collagenase (Worthington Biochemical Corporation, Lakewood, N.J.) for 20-25 minutes. Collagenase was neutralized by addition of an equal volume of DMEM/F12 medium containing 10% FBS and liberated cells were collected by centrifugation at 500×g for 5 minutes. Cells were resuspended in fresh DMEM/F12 containing 10% FBS and plated on 75 cm^2 culture flasks at 37° C. with 5% CO2 for 3 hours. Non adherent cells (myocytes) were removed by changing the culture media and adherent cells (mainly fibroblasts) were incubated in DMEM/F12 containing 10% FBS, 100 U/mL penicillin, 100 μg/mL streptomycin, and 100 μM ascorbate. Fibroblasts were used for experiments after the second passage and the purity of these cells was ≧95%, using routine phenotyping methods as previously described (Peterson et al., 1999, Cardiovasc Res 41: 575-585). […] Cells were rendered quiescent by incubation in serum-free medium for 24 hours then stimulated with CT-1 for specified times and lysed in RIPA buffer (150 mM NaCl, 1% Triton X-100, 0.5% deoxycholate, 0.1% SDS, 50 mM Tris) with 1× protease inhibitor cocktail (Sigma-Aldrich, Oakville, Ontario) and 10 mM NaF, 1 mM Na3VO4 and 1 mM EGTA.
Protein concentrations of tissue and cell lysates were determined by the BCA method (Smith et al., 1985, Anal Biochem 150: 76-85). Proteins were separated by 8-12% SDS-PAGE and transferred to PVDF membrane (Roche, Indianapolis, Ind.) for 1 hour at 300 mA for small proteins or for 2 hours at 500 mA for proteins greater than 100 kDa. Membranes were blocked with 5% non-fat skim milk in tris-buffered saline containing 0.2% Tween 20 (TBST). […] Band intensity was quantified using a CCD camera imaging densitometer (GS670, Bio-Rad Laboratories (Canada) Ltd. Mississauga, Ontario). […]

The next assay relates to rat cardiac fibroblasts. In words: Boyden chamber migration assay. In kind it is cell-based. As for the experimental part:
Migration of rat cardiac fibroblasts was measured using Boyden chamber (Neuro Probe Inc. Gaithersburg, Md.) assay (Richards and McCullough, 1984, Immunol Commun 13: 49-62). Chemoattractants were diluted in DMEM/F12 and loaded into the lower wells at specified concentrations. The polycarbonate membrane (5 μm pore) was placed over the wells, and 55 μL cell suspension in DMEM/F12 supplemented with 100 μM ascorbate was loaded into each well (1000 cells/mm^2). The chamber was incubated overnight in 5% CO2 and 100% humidity at 37° C. Cells that had migrated through the membrane and become adherent to the lower surface were fixed with methanol and stained with Diff-Quick stain (Dade Behring AG, Düdingen, Switzerland). Cell migration was determined by counting the number of cells per high power field.

In assay [3] the test system is cardiac fibroblasts. In words: Immunofluorescence of STAT3 nuclear accumulation. In kind it is cell-based, rat. Conditions: CT-1 for 5 minutes. How it is done:
Cardiac fibroblasts were seeded onto coverslips in 6 well dishes and allowed to attach overnight in media containing 10% serum. The cells were rendered quiescent in serum free media for 24 hours before being stimulated with CT-1 for specified times. The media was removed, cells were rinsed with PBS and fixed with 4% paraformaldehyde. Cells were permeabilized with 0.1% Triton X-100 and incubated with primary antibodies, biotinylated secondary antibodies, and streptavidin FITC. Nuclei were stained with Hoechst 33342. The cells were visualized with epifluorescent microscopy with appropriate filters (Nikon Canada).

Another assay has as its system cardiac myofibroblasts. Description: Estimation of membrane potential with DiBAC4(3) dye. In kind it is cell-based, rat. As to conditions: superfusion with CT-1 for 4 minutes. How it is done:
Myofibroblast membrane potential was estimated using voltage sensitive DiBAC4(3) dye (Molecular Probes, Eugene, Oreg.). […] First passage myofibroblasts were plated on glass coverslips, allowed to attach, then incubated with 1 μM DiBAC4(3) in control solution containing: NaCl (140 mM), KCl (5 mM), HEPES (10 mM), CaCl2 (2.0 mM), MgCl2 (1.4 mM) and glucose (10 mM) for 20 minutes. The cells were visualized at 400× on an inverted microscope (Nikon Canada). DiBAC4 (3) was excited at 470 nm wavelength and emitted light at 525 nm was digitized and stored (Photon Technology International, Lawrenceville, N.J.). Fluorescence intensity was normalized to maximum fluorescence observed throughout the experiment. To ensure fluorescence intensity changes in response to altered membrane potential were occurring as expected, the cells were superfused with Tyrode's solution containing 1 μM DiBAC4(3) and 1.5 mM KCl or 15 mM KCl. Under these control conditions, DiBAC4(3) fluorescence decreased or increased indicating hyperpolarization or depolarization, respectively. For CT-1 experiments, CT-1 was diluted in control solution containing 1 μM DiBAC4(3). After ensuring a stable fluorescence signal, the cells were superfused with the CT-1 containing solution for 4 minutes, followed by washout. Fluorescence was monitored for a total of 10 minutes.

In assay [4] the test system is porcine coronary artery vascular smooth muscle cells. In words: Chemotaxis of vascular smooth muscle cells (data not shown). In kind it is cell-based.
The subject of assay [5] is cardiac fibroblasts. Description: Cell counting (Coulter counter). In kind it is cell-based, rat. Conditions: CT-1 for 24 hours. How it is done: To determine absolute cell numbers after stimulation with CT-1, the total number of cells were counted. Equal numbers of cells were loaded into each well of 24 well plates and incubated with CT-1 for 24 hours. The cells were detached with trypsin, diluted in filtered phosphate buffered saline, and counted with Model ZM Coulter cell counter (Beckman Coulter, Fullerton, Calif.).

B1: cardiotrophin-1 (protein, UniProt Q16619 1-201, looked up)
Cardiotrophin-1: MSRREGSLEDPQTDSSVSLLPHLEAKIRQTHSLAHLLTKYAEQLLQEYVQLQGDPFGLPSFSPPRLPVAGLSAPAPSHAGLPVHERLRLDAAALAALPPLLDAVCRRQAELNPRAPRLLRRLEDAARQARALGAAVEALLAALGAANRGPRAEPPAATASAASATGVFPAKVLGLRVCGLYREWLSRTEGDLGQLLPGGSA
notes: gp130 signaling cytokine of the LIF or IL-6 superfamily; 201 amino acids as a mature protein, 21.5 kDa
For B1, the “nuclear expression of PCNA” value with cardiac fibroblasts [1] is listed as “increased nuclear expression of PCNA”. In the assay on cardiac fibroblasts [2], the “phosphorylation of gp130, Jak1, Jak2, STAT3, STAT1” value is given as “resulted in phosphorylation”; the “phosphorylation of p42/44 MAPK, p38 MAPK, JNK and Src” value is listed as “observed phosphorylation”. The “Phosphorylation of STAT5 or STAT6” value in the assay on cardiac fibroblasts [2] (data not shown) is recorded as “not observed”. The cardiac fibroblast migration entry in the assay with rat cardiac fibroblasts (CT-1 gradient, overnight) is recorded as “induced cardiac fibroblast migration in a dose dependent manner”. Further, in the assay on rat cardiac fibroblasts (ion channel and myosin light chain kinase function), the “dependence of CT-1 induced migration” value was “dependent on functioning potassium channels and myosin light chain kinase”. The “dependence of CT-1 chemotaxis” value with rat cardiac fibroblasts (specific inhibitors of signaling pathways, integrin inhibitors) is recorded as “dependent on intracellular signaling pathways”. In addition, the “nuclear accumulation of STAT3” value in the assay on cardiac fibroblasts [3] is “nuclear accumulation of STAT3”. In the assay with cardiac myofibroblasts, the “cell membrane potential (DiBAC4(3) fluorescence)” value is recorded as “pronounced hyperpolarization”. Further, in assay [4], the chemotactic effect entry was “does appear to have a chemotatic effect”. Further, the total cell number result in the assay with cardiac fibroblasts [5] is “increase in total cell number”.

The values above are taken from patent publication US20050171004A1, “Use of cardiotrophin-1 to promote wound healing and counteract overt fibrosis” (priority 2003, published 2005).
